# Assay results published in article PMC8609903, “Novel Lung Targeting Cell Penetrating Peptides as Vectors for Delivery of Therapeutics” (Research Square, 2021).
# Tests used:
# [1] = test system: SARS-CoV-2 (strain USA_WA1/2020); format: cell-based; details: concentrations of 2, 0.2, and 0.02 μM, human bronchial epithelial cells
# [2] = test system: human bronchial epithelial cells
# [3] = test system: Rat cardiomyoblast H9C2 cells; details: 10μM peptide, 30 minutes, 37°C, N-terminal Cy5.5, C-terminal amide, FACs, biological triplicates, p<0.001
# wild-type CD1 mice = assay: Biodistribution time course of Cy5.5 labeled R11A, ex-vivo IVIS imaging; details: 5mg/Kg Cy5.5 labeled R11A intravenous, 15-360 minutes, n=3
# Experimental: Mice were euthanized at the end of the circulation period, perfused and fixed as before, and multiple organs harvested and ex-vivo IVIS imaging performed immediately.
# Wild-type, 6-week old, female CD1 mice were purchased from Charles Rivers. After at least 48 hours of acclimatization after arriving in the animal colony, mice were weighed and anesthetized with an intraperitoneal injection of a 1:1 cocktail of Ketamine:Xylazine at 1–2μL/gm body weight. […] At the end of circulation time, mice were euthanized using inhalational CO2 as per IACUC-approved protocol, chest cavity opened, right atrium nicked and 3–5ml of 4% formalin injected through the left ventricular apex to perfusion fix the animals. Various organs were harvested, rinsed once in PBS and placed on a petri dish to be imaged using IVIS (Perkin- Elmer – S5 instrument). All mice were imaged using identical instrument settings (stage position, exposure time, binning, F-stop etc.). […] All time-points were tested in at least triplicate (n=3).
Compound,reduction of SARS-CoV-2 titers compared to virus controls [1],uptake at 4°C [2],"Cy5.5 intensities, fold higher [3] [fold]",fluorescence in kidneys (wild-type CD1 mice),fluorescence in liver (wild-type CD1 mice)
CCC(CC)COC(=O)[C@H](C)N[P@](=O)(OC[C@H]1O[C@@](C#N)(c2ccc3c(N)ncnn23)[C@H](O)[C@@H]1O)Oc1ccccc1 [Remdesivir],statistically significant,,,,
APWHLSAQYSRT ({Cy5.5}-APWHLSAQYSRT-NH2) [S7A],,very little uptake,~3,,
APWHLSSQYSAT ({Cy5.5}-APWHLSSQYSAT-NH2) [R11A],,very little uptake,,little fluorescence,decreased over time
